# Reference: publication PMC4922627
# Assays:
# [1] = target: TEV-cleaved ICP35 (White spot syndrome virus); assay: SDS-PAGE without boiling; purified protein loaded on 12% SDS-PAGE with and without boiling, Coomassie stain and Western blot; TEV-cleaved ICP35 concentrated to 10 mg/ml to induce oligomerization
# [2] = target: TEV-cleaved ICP35 (White spot syndrome virus); assay: SEC; HiLoad 16/600 Superdex 200; 20 mM Tris-HCl pH 8.0, 200 mM NaCl, 5 mM MgSO4; peak fractions checked by SDS-PAGE
substance,measurement,setting,value
TEV-cleaved ICP35 (domain or fragment),stoichiometry N,[1],2
same,stoichiometry N,[2],2
